Test results taken from paper PMC6504953, “Cauliflower mosaic virus transactivator protein (TAV) can suppress nonsense-mediated decay by targeting VARICOSE, a scaffold protein of the decapping complex” (Scientific Reports, 2019).

Target: T1, Cauliflower mosaic virus translation transactivator/viroplasmin (TAV), strain CM1841, fused to the Gal4 … (Cauliflower mosaic virus (strain CM1841), UniProt P03558 1-520)
T1 sequence: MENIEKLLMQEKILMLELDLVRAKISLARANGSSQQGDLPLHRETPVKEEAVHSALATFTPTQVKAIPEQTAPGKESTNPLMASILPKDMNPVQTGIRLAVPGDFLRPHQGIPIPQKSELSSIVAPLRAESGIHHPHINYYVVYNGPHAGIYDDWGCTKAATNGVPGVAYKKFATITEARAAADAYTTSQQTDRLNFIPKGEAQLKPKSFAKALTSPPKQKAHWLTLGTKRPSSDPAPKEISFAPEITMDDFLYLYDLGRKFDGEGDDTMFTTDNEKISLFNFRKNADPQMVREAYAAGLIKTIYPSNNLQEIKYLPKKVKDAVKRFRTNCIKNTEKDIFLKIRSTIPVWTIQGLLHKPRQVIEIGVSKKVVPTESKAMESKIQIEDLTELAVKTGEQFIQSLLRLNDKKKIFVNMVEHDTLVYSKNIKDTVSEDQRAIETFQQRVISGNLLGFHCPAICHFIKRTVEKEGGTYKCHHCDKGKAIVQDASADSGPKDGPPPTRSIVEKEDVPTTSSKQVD
Test: cell-based or functional assay

B1: VARICOSE (VCS), entire protein, fused to the Gal4 activation domain (natural protein, A. thaliana, UniProt Q9LTT8 1-1344, looked up)
chain: MASSPGNTNPHNTPPFDLGILFKPSSNPYPPPAASYPPPTGPFLHNQYDQQHYAPPGISAQPSPVTQQQQDVSSSSAATNLHPQRTLSYPTPPLNLQSPRSNHNPGTHILALLNNTNNGAPVANQEPSHQLPVVNHNEIARSFPGGSGPIRVPSCKLPKGRRLIGEHAVYDVDVRLQGEIQPQLEVTPITKYGSDPQLVVGRQIAVNKVYICYGLKGGNIRVLNINTALRSLFRGHSQRVTDMAFFAEDVDMLASVSLDGKVFVWKISEGSEGEDQPQITGKIVLALQILGEEDTKHPRVCWHCHKQEILVVSIGKHVLRIDTTKVGRGEVFSAEAPLQCPLDKLIDGVQIVGKHDGEVTDLSMCQWMTTRLVSSSVDGTIKIWQDRKAQPLVVLRPHDGHPVSSATFVTSPERPDHIILITGGPLNREMKIWVSAGEEGWLLPADAESWRCTQTLDLKSSTEPRAEEAFFNQVIALSEAGLLLLANAKRNALYAVHLDYGSSPVGTRMDYLSEFTVTMPILSFIGTNDPPEEPIVKVYCVQTLAIQQYTLDLCLCLPPPIENMGLEKSDSSVSREANLVEGMSEPSGLKPTDLPSVDSVPKPSIIVNRSESANKLSFPSAEATSQAIVPPNGEPKTSGLPSQTSGAGSAYATLPQLPLSPRLSSKLSGYHTPVEAIEPVIPHHELGGKTPSADYSVDRQMDAVGERNLDVSSVEEISRSKDSNVTPDDDVSGMRSPSAFFKHPTHLVTPSEILMGVSSAEASITTEDRRDRDANIQDVNNDPRDTEVEVKEISEARSTQNGEINDHDETENCTSENREKVFCSQVSNLSTEMARDCYPSTEGTFIPGESKAYGQPIKAGDESGVDSRGGPAKLLKGKKQKAKNSQGPGLSSTSSNVANLADSFNEQSQSLSHPMTDLLPQLLAMQETMNQVMASQKEMQRQLSNAATGPIGKESKRLEVALGRMIEKSSKSNADALWARIQEETVKNEKALRDHAQQIVNATTNFMSKELNAMFEKTIKKELAAIGPALARSVVPVIEKTVSSAITESFQRGIGDKAVNQLDKSVNIKLEATVARQIQAQFQTSGKQALQEGLRSSVESSVIPSFEKACKAMFDQIDSAFQKGIAEHTNAAQQRFDSGHSQLAHTLKESITSASSVAQALSRELAETQRNLLALAAAGANSGGSNSLVTQLSGGPLGALLEKVEAPMDPTTELSRLISERKYEESFTSALQRSDVSIVSWLCSQVDLRGLLAMNPLPLSQGVLLSLLQQLACDISKDTSRKLAWMTDVVAAINPSDQMIAVHARPIFEQVYQILHHHRNAPGSDVSAIRLIMHVINSMLMGCK
GFPabc mRNA level by qRT-PCR in N. benthamiana leaves co-infiltrated with pGFPabc, pVCS and pTAV against pTAV alone: 3 fold
